Measured values as given in IntAct's records for PubMed 10898792.

B1: DNA polymerase alpha catalytic subunit A (Saccharomyces cerevisiae), P13382 (parent)
chain: MSSKSEKLEKLRKLQAARNGTSIDDYEGDESDGDRIYDEIDEKEYRARKRQELLHDDFVVDDDGVGYVDRGVEEDWREVDNSSSDEDTGNLASKDSKRKKNIKREKDHQITDMLRTQHSKSTLLAHAKKSQKKSIPIDNFDDILGEFESGEVEKPNILLPSKLRENLNSSPTSEFKSSIKRVNGNDESSHDAGISKKVKIDPDSSTDKYLEIESSPLKLQSRKLRYANDVQDLLDDVENSPVVATKRQNVLQDTLLANPPSAQSLADEEDDEDSDEDIILKRRTMRSVTTTRRVNIDSRSNPSTSPFVTAPGTPIGIKGLTPSKSLQSNTDVATLAVNVKKEDVVDPETDTFQMFWLDYCEVNNTLILFGKVKLKDDNCVSAMVQINGLCRELFFLPREGKTPTDIHEEIIPLLMDKYGLDNIRAKPQKMKYSFELPDIPSESDYLKVLLPYQTPKSSRDTIPSDLSSDTFYHVFGGNSNIFESFVIQNRIMGPCWLDIKGADFNSIRNASHCAVEVSVDKPQNITPTTTKTMPNLRCLSLSIQTLMNPKENKQEIVSITLSAYRNISLDSPIPENIKPDDLCTLVRPPQSTSFPLGLAALAKQKLPGRVRLFNNEKAMLSCFCAMLKVEDPDVIIGHRLQNVYLDVLAHRMHDLNIPTFSSIGRRLRRTWPEKFGRGNSNMNHFFISDICSGRLICDIANEMGQSLTPKCQSWDLSEMYQVTCEKEHKPLDIDYQNPQYQNDVNSMTMALQENITNCMISAEVSYRIQLLTLTKQLTNLAGNAWAQTLGGTRAGRNEYILLHEFSRNGFIVPDKEGNRSRAQKQRQNEENADAPVNSKKAKYQGGLVFEPEKGLHKNYVLVMDFNSLYPSIIQEFNICFTTVDRNKEDIDELPSVPPSEVDQGVLPRLLANLVDRRREVKKVMKTETDPHKRVQCDIRQQALKLTANSMYGCLGYVNSRFYAKPLAMLVTNKGREILMNTRQLAESMNLLVVYGDTDSVMIDTGCDNYADAIKIGLGFKRLVNERYRLLEIDIDNVFKKLLLHAKKKYAALTVNLDKNGNGTTVLEVKGLDMKRREFCPLSRDVSIHVLNTILSDKDPEEALQEVYDYLEDIRIKVETNNIRIDKYKINMKLSKDPKAYPGGKNMPAVQVALRMRKAGRVVKAGSVITFVITKQDEIDNAADTPALSVAERAHALNEVMIKSNNLIPDPQYYLEKQIFAPVERLLERIDSFNVVRLSEALGLDSKKYFRREGGNNNGEDINNLQPLETTITDVERFKDTVTLELSCPSCDKRFPFGGIVSSNYYRVSYNGLQCKHCEQLFTPLQLTSQIEHSIRAHISLYYAGWLQCDDSTCGIVTRQVSVFGKRCLNDGCTGVMRYKYSDKQLYNQLLYFDSLFDCEKNKKQELKPIYLPDDLDYPKEQLTESSIKALTEQNRELMETGRSVVQKYLNDCGRRYVDMTSIFDFMLN
partner: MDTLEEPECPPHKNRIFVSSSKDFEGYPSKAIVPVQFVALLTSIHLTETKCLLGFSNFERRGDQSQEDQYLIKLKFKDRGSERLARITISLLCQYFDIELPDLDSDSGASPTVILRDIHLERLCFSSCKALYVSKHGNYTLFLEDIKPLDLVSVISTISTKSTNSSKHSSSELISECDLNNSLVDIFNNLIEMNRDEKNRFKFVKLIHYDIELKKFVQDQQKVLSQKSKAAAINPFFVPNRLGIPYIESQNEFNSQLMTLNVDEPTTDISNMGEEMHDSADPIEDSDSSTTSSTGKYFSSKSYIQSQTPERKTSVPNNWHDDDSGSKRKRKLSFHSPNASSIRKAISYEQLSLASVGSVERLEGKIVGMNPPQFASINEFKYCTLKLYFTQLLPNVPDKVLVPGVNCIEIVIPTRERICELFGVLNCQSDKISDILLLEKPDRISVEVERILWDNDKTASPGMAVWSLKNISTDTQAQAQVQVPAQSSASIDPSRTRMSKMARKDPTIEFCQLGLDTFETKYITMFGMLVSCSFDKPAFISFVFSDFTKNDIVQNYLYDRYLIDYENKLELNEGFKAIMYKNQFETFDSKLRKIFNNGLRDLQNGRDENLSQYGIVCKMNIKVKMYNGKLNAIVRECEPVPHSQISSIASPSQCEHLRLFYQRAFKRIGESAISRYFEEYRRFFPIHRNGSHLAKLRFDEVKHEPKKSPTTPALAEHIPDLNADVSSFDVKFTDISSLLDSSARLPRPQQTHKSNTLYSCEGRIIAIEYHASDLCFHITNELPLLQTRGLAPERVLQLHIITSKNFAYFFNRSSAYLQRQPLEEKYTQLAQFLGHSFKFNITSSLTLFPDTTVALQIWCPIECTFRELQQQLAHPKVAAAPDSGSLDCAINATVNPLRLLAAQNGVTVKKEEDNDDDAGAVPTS
B2: Cell division control protein 13 (Saccharomyces cerevisiae), P32797 (parent)
chain: B1 partner
partner: B1 chain
B3: Cell division control protein 13 (Saccharomyces cerevisiae), P32797 (parent)
chain: B1 partner
partner: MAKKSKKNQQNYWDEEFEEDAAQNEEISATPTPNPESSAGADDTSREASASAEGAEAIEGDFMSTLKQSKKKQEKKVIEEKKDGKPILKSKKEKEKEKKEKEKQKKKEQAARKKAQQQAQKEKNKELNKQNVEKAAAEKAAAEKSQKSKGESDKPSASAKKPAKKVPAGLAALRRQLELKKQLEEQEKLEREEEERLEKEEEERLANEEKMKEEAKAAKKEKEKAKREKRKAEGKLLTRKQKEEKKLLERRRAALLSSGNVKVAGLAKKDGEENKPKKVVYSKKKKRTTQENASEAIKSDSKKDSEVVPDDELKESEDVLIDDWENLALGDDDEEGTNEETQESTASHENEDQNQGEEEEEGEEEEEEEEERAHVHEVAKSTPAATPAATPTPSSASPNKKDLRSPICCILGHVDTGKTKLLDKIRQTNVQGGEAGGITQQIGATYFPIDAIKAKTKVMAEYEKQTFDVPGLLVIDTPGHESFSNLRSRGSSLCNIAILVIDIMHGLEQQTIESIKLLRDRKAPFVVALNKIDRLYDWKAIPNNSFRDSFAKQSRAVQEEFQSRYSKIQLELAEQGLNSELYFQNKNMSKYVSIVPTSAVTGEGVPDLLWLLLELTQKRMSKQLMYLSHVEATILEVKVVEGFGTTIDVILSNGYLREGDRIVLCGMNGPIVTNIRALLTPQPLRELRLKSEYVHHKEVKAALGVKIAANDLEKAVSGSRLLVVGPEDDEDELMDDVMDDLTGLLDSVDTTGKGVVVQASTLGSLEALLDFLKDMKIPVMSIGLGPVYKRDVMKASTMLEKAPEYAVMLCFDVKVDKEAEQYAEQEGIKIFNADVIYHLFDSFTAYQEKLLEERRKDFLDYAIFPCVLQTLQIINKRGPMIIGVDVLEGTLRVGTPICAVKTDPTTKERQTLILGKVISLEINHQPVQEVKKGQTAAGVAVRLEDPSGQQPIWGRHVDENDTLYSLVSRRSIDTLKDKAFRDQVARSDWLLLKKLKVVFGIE

Variants of: B1
Settings: with cdc13_yeast CDC13, P32797

Effect of a mutation on the interaction, decreasing interaction:
E238K
D236N
P241T

Variants of: B2
Settings: with dpola_yeast POL1, P13382

Effect of a mutation on the interaction, decreasing interaction:
G243R
S228P
I72T
K129R
C124R
Y382H
I523V
L149S
D97F
L392P
K50Q

Variants of: B3
Settings: with if2p_yeast FUN12, P39730

Effect of a mutation on the interaction, decreasing interaction:
G243R
K129R
I72T
